Measured values as given in paper PMC5356885 (Oncotarget, 2016).

Biological target: T1, recombinant CaM for NMR (pETM11-CaM, tag cleaved) (UniProt P62149 1-149)
T1 construct: also called ^14N-CaM; ^15N-CaM
Test: NMR titration
Conditions: both partners purified

B1: histidine-tagged recombinant v-Myc bHLH-LZ fragment for NMR (131-amino acid construct, S314-A416) (domain or fragment)
chain: SNNRKCSSPRTLDSEENDKRRTHNVLERQRRNELKLRFFALRDQIPEVANNEKAPKVVILKKATEYVLSLQSDEHKLIAEKEQLRRRREQLKHNLEQLRNSRA
binding result: binds

B2: tag-free Myc (v-Myc bHLH-LZ fragment without the histidine tag) (domain or fragment)
chain: B1 chain
modifications: ^15N-labelled
binding result: binds
